Laboratory results published in PMC12416549 (2024).
Where a chain is given by its changes, count along the chain named. Numbers in names are those of the source.

T1: TNFR1 (Homo sapiens, UniProt P19438)
T1 chain: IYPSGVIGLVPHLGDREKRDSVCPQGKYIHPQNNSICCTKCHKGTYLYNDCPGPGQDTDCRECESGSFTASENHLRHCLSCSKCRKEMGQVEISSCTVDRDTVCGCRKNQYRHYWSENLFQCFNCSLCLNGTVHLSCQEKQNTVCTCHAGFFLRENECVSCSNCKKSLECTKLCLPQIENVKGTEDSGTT

B1: A11N (designed binder)
chain: MTLQELLREENLRRAEAEAFRYALELLAEKFPEQKEYLLDLAEEIESQIRSLSGVDVEDVRKFLDKEWAWVKELLAEHPAELAEVEAARAARLAELRAEVEAKVAA
B2: Q34R (designed binder)
chain: B1 chain with N11A, Q34R
B3: V85H (designed binder)
chain: B1 chain with N11A, V85H
B4: W68M (designed binder)
chain: B1 chain with N11A, W68M
B5: V85C (designed binder)
chain: B1 chain with N11A, V85C
B6: S53N (designed binder)
chain: B1 chain with N11A, S53N
B7: D65G (designed binder)
chain: B1 chain with N11A, D65G
B8: D65Y (designed binder)
chain: B1 chain with N11A, D65Y
B9: E46K (designed binder)
chain: B1 chain with N11A, E46K
B10: Y37L (designed binder)
chain: B1 chain with N11A, Y37L
B11: Q48F (designed binder)
chain: B1 chain with N11A, Q48F
B12: A19S (designed binder)
chain: B1 chain with N11A, A19S
B13: L12K (designed binder)
chain: B1 chain with N11A, L12K
B14: L39Q (designed binder)
chain: B1 chain with N11A, L39Q
B15: E9Y (designed binder)
chain: B1 chain with E9Y, N11A
B16: E9Q (designed binder)
chain: B1 chain with E9Q, N11A
B17: E58Q (designed binder)
chain: B1 chain with N11A, E58Q
B18: A87Q (designed binder)
chain: B1 chain with N11A, A87Q
B19: A42R (designed binder)
chain: B1 chain with N11A, A42R
B20: T2I (designed binder)
chain: B1 chain with T2I, N11A
B21: Q48P (designed binder)
chain: B1 chain with N11A, Q48P
B22: T2H (designed binder)
chain: B1 chain with T2H, N11A
B23: V57R (designed binder)
chain: B1 chain with N11A, V57R
B24: L26E (designed binder)
chain: B1 chain with N11A, L26E
B25: S47Y (designed binder)
chain: B1 chain with N11A, S47Y
B26: V57W (designed binder)
chain: B1 chain with N11A, V57W
B27: T2C (designed binder)
chain: B1 chain with T2C, N11A
B28: A76W (designed binder)
chain: B1 chain with N11A, A76W
B29: A106K (designed binder)
chain: B1 chain with N11A, A106K
B30: R21H (designed binder)
chain: B1 chain with N11A, R21H
B31: Y22T (designed binder)
chain: B1 chain with N11A, Y22T
B32: K30P (designed binder)
chain: B1 chain with N11A, K30P
B33: A19Y (designed binder)
chain: B1 chain with N11A, A19Y
B34: E101A (designed binder)
chain: B1 chain with N11A, E101A
B35: E73R (designed binder)
chain: B1 chain with N11A, E73R
B36: W68T (designed binder)
chain: B1 chain with N11A, W68T
B37: E44W (designed binder)
chain: B1 chain with N11A, E44W
B38: R13P (designed binder)
chain: B1 chain with N11A, R13P
B39: F31V (designed binder)
chain: B1 chain with N11A, F31V
B40: P32Y (designed binder)
chain: B1 chain with N11A, P32Y
B41: R21G (designed binder)
chain: B1 chain with N11A, R21G
B42: Q34C (designed binder)
chain: B1 chain with N11A, Q34C
B43: D59P (designed binder)
chain: B1 chain with N11A, D59P

Target: T1, TNFR1
Test: yeast display SC50

| Binder | apparent Kd (screen) [nM] |
| --- | --- |
| B1 | 0.405 |
| B2 | 0.718 |
| B3 | 1.05 |
| B4 | 0.539 |
| B5 | 0.446 |
| B6 | 0.653 |
| B7 | 0.593 |
| B8 | 0.653 |
| B9 | 0.593 |
| B10 | 7.78 |
| B11 | 13.8 |
| B12 | 0.653 |
| B13 | 0.539 |
| B14 | 1.27 |
| B15 | 1.05 |
| B16 | 0.49 |
| B17 | 0.653 |
| B18 | 0.653 |
| B19 | 2.25 |
| B20 | 0.653 |
| B21 | 3.99 |
| B22 | 0.869 |

| Binder | apparent Kd (screen) [nM] |
| --- | --- |
| B23 | 0.79 |
| B24 | 0.79 |
| B25 | 0.49 |
| B26 | 1.27 |
| B27 | 2.73 |
| B28 | 0.446 |
| B29 | 1.05 |
| B30 | 0.49 |
| B31 | 0.49 |
| B32 | 0.653 |
| B33 | 10.4 |
| B34 | 0.79 |
| B35 | 0.539 |
| B36 | 1.54 |
| B37 | 0.539 |
| B38 | 11.4 |
| B39 | 0.653 |
| B40 | 0.539 |
| B41 | 0.869 |
| B42 | 1.05 |
| B43 | 0.252 |
